From paper PMC12302718, “Molecular basis for Gβγ-SNARE-mediated inhibition of synaptic vesicle fusion” (The Journal of Biological Chemistry, 2025)
Where no end group is shown, it is not given here.

Biological target: T1, His-tagged soluble Gβ1γ2 (C68S) (UniProt P62873;P59768, C68S)
T1 construct: G-protein subunit β1 (Gβ1); G-protein subunit γ2 (Gγ2) with C68S (soluble); it is entered on Gβ1; For MST the His tag was labelled with Red-tris-NTA; also called full-length Gβ1γ2; His6-Gβ1γ2; source: Sf9 cells, purified as previously described (69)
Test: AlphaScreen or HTRF; direct binding: 20 nM biotinylated Nb5 with 0.1 nM-1 μM His-tagged Gβ1γ2; concentration-response curves fitted for EC50
Settings: both partners purified

Row | Binder | EC50 [nM]
1 | biotinylated Nb5 (VHH, also called Nanobody-5; source: expressed and purified as described previously (53); plasmid a gift of the Palczewski laboratory) VHH: QVQLVESGGGLVQAGGSLRLSCAASGSIFSINAMGWYRQAPGKQRELVAAITRGGRTNYADSVKGRFTLSRDNAKNTVYLQMNSLKPEDTAVYYCNVGRSRGYWGQGTQVTVSS | 3.72

Biological target: T2, His-tagged soluble Gβ1γ2 (C68S) (UniProt P62873 1-340; P59768 1-71, C68S)
T2 construct: G-protein subunit β1 (Gβ1); G-protein subunit γ2 (Gγ2) with C68S (soluble); it is entered on Gβ1; For MST the His tag was labelled with Red-tris-NTA; also called full-length Gβ1γ2; His6-Gβ1γ2; source: Sf9 cells, purified as previously described (69)
Test: AlphaScreen or HTRF; competition: SNAP25 C-terminal peptide (189-206) against biotinylated full-length SNAP25 for His6-Gβ1γ2
Settings: both partners purified

Row | Binder | IC50 [nM]
2 | KTRIDEANQRATKMLGSG (peptide, UniProt P60880 189-206, looked up, also called C-terminal SNAP25 peptide) [SNAP25 C-terminal peptide (residues 189–206)] | 1840

Biological target: T3, biotinylated SNAP25 (UniProt P60880 1-206, biotin (site not stated))
T3 construct: SNAP25, wild type; also called full-length SNAP25; synaptosomal-associated protein-25; source: expressed and purified as described (12, 39)
Test: AlphaScreen or HTRF; competition: Gγ peptides 1 nM-100 μM; 20 nM biotinylated SNAP25 on streptavidin donor beads, 180 nM His6-Gβ1γ2 on nickel chelate acceptor beads; 20 mM HEPES pH 7.0, 10 mM NaCl, 40 mM KCl, 5% glycerol, 0.01% Triton X-100; 27 °C
Settings: both partners purified

Row | Binder | IC50 [nM]
3 | TPVPASENPFREKKF (on the array: C-terminus coupled to the membrane, Gγ2, human, residues 52-66; also called Gγ2 peptide 18 (by the array's scheme of 15-mers shifted by three); source: synthetic peptide: SPOT array on membrane (ResPep SL)) [Gγ2, res. 52–66 peptide] | 12600
4 | MPVINIEDLTEKDKL (Gγ1, human, residues 1-15; also called Gγ1 N-terminal peptide; source: peptide stock in DMSO) [Gγ1, res. 1–15 peptide] | > 100000
5 | LKYQLAFQREMASKT (on the array: C-terminus coupled to the membrane, Gγ13, human, residues 16-30; source: synthetic peptide: SPOT array on membrane (ResPep SL)) [Gγ13, res. 16–30 peptide] | 9460

The next lines start with the values.

Row | IC50 [nM] | Binder
6 | 540 | MASNNTASIAQARKL (on the array: C-terminus coupled to the membrane, Gγ2, human, residues 1-15; also called Gγ2 N-terminal peptide; Gγ2 amino-terminal peptide; source: synthetic peptide: SPOT array on membrane (ResPep SL)) [Gγ2, res. 1–15 peptide]
7 | 4040 | IGQARKMVEQLKIEA (also: C-terminus coupled to the membrane, Gγ3, human, residues 13-27; source: synthetic peptide: SPOT array on membrane (ResPep SL)) [Gγ3, res. 13–27 peptide]
8 | 7010 | ITPVPTSENPFREKK (on the array: C-terminus coupled to the membrane, Gγ3, human, printed as residues 56-70; source: synthetic peptide: SPOT array on membrane (ResPep SL)) [Gγ3, res. 56–70 peptide]
9 | 640 | PVPAAENPFRDKRLF (on the array: C-terminus coupled to the membrane, Gγ8, human, residues 52-66; source: synthetic peptide: SPOT array on membrane (ResPep SL)) [Gγ8, res. 52–66 peptide]
10 | 2910 | STNNIAQARRTVQQL (on the array: C-terminus coupled to the membrane, Gγ12, human, residues 7-21; source: synthetic peptide: SPOT array on membrane (ResPep SL)) [Gγ12, res. 7–21 peptide]
11 | 1720 | LTGVSSSTNPFRPQK (on the array: C-terminus coupled to the membrane, Gγ5, human, residues 49-63; source: synthetic peptide: SPOT array on membrane (ResPep SL)) [Gγ5, res. 49–63 peptide]
12 | 430 | GASASALQRLVEQLK (on the array: C-terminus coupled to the membrane, Gγ10, human, residues 4-18; source: synthetic peptide: SPOT array on membrane (ResPep SL)) [Gγ10, res. 4–18 peptide]

Biological target: T1, His-tagged soluble Gβ1γ2 (C68S)
Test: AlphaScreen or HTRF; competition: Nb5 0.4 nM-1.26 μM; biotinylated SNAP25 with an EC80 concentration of His-tagged Gβ1γ2
Settings: both partners purified

Row | Binder | IC50 [nM]
13 | Nanobody-5 (Nb5) (VHH, as the chain of m17; source: expressed and purified as described previously (53); plasmid a gift of the Palczewski laboratory) VHH: QVQLVESGGGLVQAGGSLRLSCAASGSIFSINAMGWYRQAPGKQRELVAAITRGGRTNYADSVKGRFTLSRDNAKNTVYLQMNSLKPEDTAVYYCNVGRSRGYWGQGTQVTVSS | 24.6
